We go through 2 molecules from patent US20260015399A1 (Boehringer Ingelheim, published 2026).

Broadly, the Ki is the dissociation constant of the complex between target and ligand, obtained from inhibition or displacement. A higher Ki goes with a looser hold on the target.

*1 amine or outer side, *2 acyl side, *3 side chain or, on linkers, in order; H or OH if unused. Side-chain parts run from the residue outwards. The star is where a group is joined. C18 diacid = O=C(O)CCCCCCCCCCCCCCCCC(=O)*; γGlu = O=C(O)[C@H](CCC(=O)[*:2])N[*:1]; Isovaleryl = CC(C)CC(=O)*; Ahx = NCCCCCC(=O)O

The assay has as its target T1, human NPY2 receptor (human, UniProt P49146 1-381).
T1 construct: whole, on cells; also called hNPY2-R; hNPY2R
T1 sequence (looked up): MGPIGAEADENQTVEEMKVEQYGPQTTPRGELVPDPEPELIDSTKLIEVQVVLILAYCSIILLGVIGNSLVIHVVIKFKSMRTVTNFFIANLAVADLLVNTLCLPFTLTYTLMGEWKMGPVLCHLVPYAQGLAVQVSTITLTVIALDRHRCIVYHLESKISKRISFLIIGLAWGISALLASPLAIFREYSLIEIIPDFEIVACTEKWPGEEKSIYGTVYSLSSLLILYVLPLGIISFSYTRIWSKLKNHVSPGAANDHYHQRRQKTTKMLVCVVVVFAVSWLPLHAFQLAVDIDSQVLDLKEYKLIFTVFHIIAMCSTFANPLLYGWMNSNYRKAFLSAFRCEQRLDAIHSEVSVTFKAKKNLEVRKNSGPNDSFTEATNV
Kind of assay: RLB: displacement of 125I-PYY(1-36) from hNPY2R membranes. In general terms: Displacement assays read how much labelled ligand stays bound in the presence of the test substance.

B1: Compound 166 (peptide)
peptide: Isovaleryl-APAK([Ahx-γGlu-C18 diacid])PEEDASPEELQRYYVELRHYYNWLTRQRY-NH2
SMILES: CC(C)CC(=O)N[C@@H](C)C(=O)N1CCC[C@H]1C(=O)N[C@@H](C)C(=O)N[C@@H](CCCCNC(=O)CCCCCNC(=O)CC[C@H](NC(=O)CCCCCCCCCCCCCCCCC(=O)O)C(=O)O)C(=O)N1CCC[C@H]1C(=O)N[C@@H](CCC(=O)O)C(=O)N[C@@H](CCC(=O)O)C(=O)N[C@@H](CC(=O)O)C(=O)N[C@@H](C)C(=O)N[C@@H](CO)C(=O)N1CCC[C@H]1C(=O)N[C@@H](CCC(=O)O)C(=O)N[C@@H](CCC(=O)O)C(=O)N[C@@H](CC(C)C)C(=O)N[C@@H](CCC(N)=O)C(=O)N[C@@H](CCCNC(=N)N)C(=O)N[C@@H](Cc1ccc(O)cc1)C(=O)N[C@@H](Cc1ccc(O)cc1)C(=O)N[C@H](C(=O)N[C@@H](CCC(=O)O)C(=O)N[C@@H](CC(C)C)C(=O)N[C@@H](CCCNC(=N)N)C(=O)N[C@@H](Cc1c[nH]cn1)C(=O)N[C@@H](Cc1ccc(O)cc1)C(=O)N[C@@H](Cc1ccc(O)cc1)C(=O)N[C@@H](CC(N)=O)C(=O)N[C@@H](Cc1c[nH]c2ccccc12)C(=O)N[C@@H](CC(C)C)C(=O)N[C@H](C(=O)N[C@@H](CCCNC(=N)N)C(=O)N[C@@H](CCC(N)=O)C(=O)N[C@@H](CCCNC(=N)N)C(=O)N[C@@H](Cc1ccc(O)cc1)C(N)=O)[C@@H](C)O)C(C)C
For B1, the Ki is 2.05 nM.

B2: Compound 167 (peptide)
peptide: Isovaleryl-APAK([Ahx-γGlu-C18 diacid])PEEAAEPEEIQRYYVALRHYYNWLTRQRY-NH2
SMILES: CC[C@H](C)[C@H](NC(=O)[C@H](CCC(=O)O)NC(=O)[C@H](CCC(=O)O)NC(=O)[C@@H]1CCCN1C(=O)[C@H](CCC(=O)O)NC(=O)[C@H](C)NC(=O)[C@H](C)NC(=O)[C@H](CCC(=O)O)NC(=O)[C@H](CCC(=O)O)NC(=O)[C@@H]1CCCN1C(=O)[C@H](CCCCNC(=O)CCCCCNC(=O)CC[C@H](NC(=O)CCCCCCCCCCCCCCCCC(=O)O)C(=O)O)NC(=O)[C@H](C)NC(=O)[C@@H]1CCCN1C(=O)[C@H](C)NC(=O)CC(C)C)C(=O)N[C@@H](CCC(N)=O)C(=O)N[C@@H](CCCNC(=N)N)C(=O)N[C@@H](Cc1ccc(O)cc1)C(=O)N[C@@H](Cc1ccc(O)cc1)C(=O)N[C@H](C(=O)N[C@@H](C)C(=O)N[C@@H](CC(C)C)C(=O)N[C@@H](CCCNC(=N)N)C(=O)N[C@@H](Cc1c[nH]cn1)C(=O)N[C@@H](Cc1ccc(O)cc1)C(=O)N[C@@H](Cc1ccc(O)cc1)C(=O)N[C@@H](CC(N)=O)C(=O)N[C@@H](Cc1c[nH]c2ccccc12)C(=O)N[C@@H](CC(C)C)C(=O)N[C@H](C(=O)N[C@@H](CCCNC(=N)N)C(=O)N[C@@H](CCC(N)=O)C(=O)N[C@@H](CCCNC(=N)N)C(=O)N[C@@H](Cc1ccc(O)cc1)C(N)=O)[C@@H](C)O)C(C)C
Regarding B2, the Ki came out at 4.58 nM. Against the preceding molecule, the Ki is about 2.2-fold higher.
